Data: IntAct's records for PubMed 31515488

B1: Lebercilin-like protein (Homo sapiens), O95447 (parent)
chain: MSLADLTKTNIDEHFFGVALENNRRSAACKRSPGTGDFSRNSNASNKSVDYSRSQCSCGSLSSQYDYSEDFLCDCSEKAINRNYLKQPVVKEKEKKKYNVSKISQSKGQKEISVEKKHTWNASLFNSQIHMIAQRRDAMAHRILSARLHKIKGLKNELADMHHKLEAILTENQFLKQLQLRHLKAIGKYENSQNNLPQIMAKHQNEVKNLRQLLRKSQEKERTLSRKLRETDSQLLKTKDILQALQKLSEDKNLAEREELTHKLSIITTKMDANDKKIQSLEKQLRLNCRAFSRQLAIETRKTLAAQTATKTLQVEVKHLQQKLKEKDRELEIKNIYSHRILKNLHDTEDYPKVSSTKSVQADRKILPFTSMRHQGTQKSDVPPLTTKGKKATGNIDHKEKSTEINHEIPHCVNKLPKQEDSKRKYEDLSGEEKHLEVQILLENTGRQKDKKEDQEKKNIFVKEEQELPPKIIEVIHPERESNQEDVLVREKFKRSMQRNGVDDTLGKGTAPYTKGPLRQRRHYSFTEATENLHHGLPASGGPANAGNMRYSHSTGKHLSNREEMELEHSDSGYEPSFGKSSRIKVKDTTFRDKKSSLMEELFGSGYVLKTDQSSPGVAKGSEEPLQSKESHPLPPSQASTSHAFGDSKVTVVNSIKPSSPTEGKRKIII
B2: Tuftelin-interacting protein 11 (Homo sapiens), Q9UBB9 (parent)
chain: MSLSHLYRDGEGRIDDDDDERENFEITDWDLQNEFNPNRQRHWQTKEEATYGVWAERDSDDERPSFGGKRARDYSAPVNFISAGLKKGAAEEAELEDSDDEEKPVKQDDFPKDFGPRKLKTGGNFKPSQKGFAGGTKSFMDFGSWERHTKGIGQKLLQKMGYVPGRGLGKNAQGIINPIEAKQRKGKGAVGAYGSERTTQSMQDFPVVDSEEEAEEEFQKELSQWRKDPSGSKKKPKYSYKTVEELKAKGRISKKLTAPQKELSQVKVIDMTGREQKVYYSYSQISHKHNVPDDGLPLQSQQLPQSGKEAKAPGFALPELEHNLQLLIDLTEQEIIQNDRQLQYERDMVVNLFHELEKMTEVLDHEERVISNLSKVLEMVEECERRMQPDCSNPLTLDECARIFETLQDKYYEEYRMSDRVDLAVAIVYPLMKEYFKEWDPLKDCTYGTEIISKWKSLLENDQLLSHGGQDLSADAFHRLIWEVWMPFVRNIVTQWQPRNCDPMVDFLDSWVHIIPVWILDNILDQLIFPKLQKEVENWNPLTDTVPIHSWIHPWLPLMQARLEPLYSPIRSKLSSALQKWHPSDSSAKLILQPWKDVFTPGSWEAFMVKNIVPKLGMCLGELVINPHQQHMDAFYWVIDWEGMISVSSLVGLLEKHFFPKWLQVLCSWLSNSPNYEEITKWYLGWKSMFSDQVLAHPSVKDKFNEALDIMNRAVSSNVGAYMQPGARENIAYLTHTERRKDFQYEAMQERREAENMAQRGIGVAASSVPMNFKDLIETKAEEHNIVFMPVIGKRHEGKQLYTFGRIVIYIDRGVVFVQGEKTWVPTSLQSLIDMAK
partner: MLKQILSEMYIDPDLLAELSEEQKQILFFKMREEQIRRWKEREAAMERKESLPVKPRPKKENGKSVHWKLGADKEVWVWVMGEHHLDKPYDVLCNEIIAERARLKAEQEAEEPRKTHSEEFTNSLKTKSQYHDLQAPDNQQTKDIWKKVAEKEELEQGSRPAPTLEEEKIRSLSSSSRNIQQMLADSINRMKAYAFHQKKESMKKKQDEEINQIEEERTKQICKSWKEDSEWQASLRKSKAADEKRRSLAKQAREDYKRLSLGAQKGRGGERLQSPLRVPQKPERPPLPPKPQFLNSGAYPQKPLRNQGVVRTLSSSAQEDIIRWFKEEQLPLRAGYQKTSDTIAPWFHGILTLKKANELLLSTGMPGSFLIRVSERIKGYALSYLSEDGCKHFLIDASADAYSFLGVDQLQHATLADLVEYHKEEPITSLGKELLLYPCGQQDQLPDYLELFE
B3: Methylmalonyl-CoA epimerase, mitochondrial (Homo sapiens), Q96PE7 (parent)
chain: MARVLKAAAANAVGLFSRLQAPIPTVRASSTSQPLDQVTGSVWNLGRLNHVAIAVPDLEKAAAFYKNILGAQVSEAVPLPEHGVSVVFVNLGNTKMELLHPLGRDSPIAGFLQKNKAGGMHHICIEVDNINAAVMDLKKKKIRSLSEEVKIGAHGKPVIFLHPKDCGGVLVELEQA
B4: Peroxisomal biogenesis factor 3 (Homo sapiens), P56589 (parent)
chain: MLRSVWNFLKRHKKKCIFLGTVLGGVYILGKYGQKKIREIQEREAAEYIAQARRQYHFESNQRTCNMTVLSMLPTLREALMQQLNSESLTALLKNRPSNKLEIWEDLKIISFTRSTVAVYSTCMLVVLLRVQLNIIGGYIYLDNAAVGKNGTTILAPPDVQQQYLSSIQHLLGDGLTELITVIKQAVQKVLGSVSLKHSLSLLDLEQKLKEIRNLVEQHKSSSWINKDGSKPLLCHYMMPDEETPLAVQACGLSPRDITTIKLLNETRDMLESPDFSTVLNTCLNRGFSRLLDNMAEFFRPTEQDLQHGNSMNSLSSVSLPLAKIIPIVNGQIHSVCSETPSHFVQDLLTMEQVKDFAANVYEAFSTPQQLEK
partner: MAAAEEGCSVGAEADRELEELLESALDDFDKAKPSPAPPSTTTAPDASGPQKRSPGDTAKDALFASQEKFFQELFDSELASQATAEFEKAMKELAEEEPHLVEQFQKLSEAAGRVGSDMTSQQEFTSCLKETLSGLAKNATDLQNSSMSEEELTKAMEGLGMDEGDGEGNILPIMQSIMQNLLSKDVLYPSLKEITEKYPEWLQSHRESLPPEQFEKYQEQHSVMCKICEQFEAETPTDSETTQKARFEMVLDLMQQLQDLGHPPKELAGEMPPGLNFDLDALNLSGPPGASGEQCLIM
B5: Centrosomal protein of 55 kDa (Homo sapiens), Q53EZ4 (parent)
chain: MSSRSTKDLIKSKWGSKPSNSKSETTLEKLKGEIAHLKTSVDEITSGKGKLTDKERHRLLEKIRVLEAEKEKNAYQLTEKDKEIQRLRDQLKARYSTTTLLEQLEETTREGERREQVLKALSEEKDVLKQQLSAATSRIAELESKTNTLRLSQTVAPNCFNSSINNIHEMEIQLKDALEKNQQWLVYDQQREVYVKGLLAKIFELEKKTETAAHSLPQQTKKPESEGYLQEEKQKCYNDLLASAKKDLEVERQTITQLSFELSEFRRKYEETQKEVHNLNQLLYSQRRADVQHLEDDRHKTEKIQKLREENDIARGKLEEEKKRSEELLSQVQFLYTSLLKQQEEQTRVALLEQQMQACTLDFENEKLDRQHVQHQLHVILKELRKARNQITQLESLKQLHEFAITEPLVTFQGETENREKVAASPKSPTAALNESLVECPKCNIQYPATEHRDLLVHVEYCSK
partner: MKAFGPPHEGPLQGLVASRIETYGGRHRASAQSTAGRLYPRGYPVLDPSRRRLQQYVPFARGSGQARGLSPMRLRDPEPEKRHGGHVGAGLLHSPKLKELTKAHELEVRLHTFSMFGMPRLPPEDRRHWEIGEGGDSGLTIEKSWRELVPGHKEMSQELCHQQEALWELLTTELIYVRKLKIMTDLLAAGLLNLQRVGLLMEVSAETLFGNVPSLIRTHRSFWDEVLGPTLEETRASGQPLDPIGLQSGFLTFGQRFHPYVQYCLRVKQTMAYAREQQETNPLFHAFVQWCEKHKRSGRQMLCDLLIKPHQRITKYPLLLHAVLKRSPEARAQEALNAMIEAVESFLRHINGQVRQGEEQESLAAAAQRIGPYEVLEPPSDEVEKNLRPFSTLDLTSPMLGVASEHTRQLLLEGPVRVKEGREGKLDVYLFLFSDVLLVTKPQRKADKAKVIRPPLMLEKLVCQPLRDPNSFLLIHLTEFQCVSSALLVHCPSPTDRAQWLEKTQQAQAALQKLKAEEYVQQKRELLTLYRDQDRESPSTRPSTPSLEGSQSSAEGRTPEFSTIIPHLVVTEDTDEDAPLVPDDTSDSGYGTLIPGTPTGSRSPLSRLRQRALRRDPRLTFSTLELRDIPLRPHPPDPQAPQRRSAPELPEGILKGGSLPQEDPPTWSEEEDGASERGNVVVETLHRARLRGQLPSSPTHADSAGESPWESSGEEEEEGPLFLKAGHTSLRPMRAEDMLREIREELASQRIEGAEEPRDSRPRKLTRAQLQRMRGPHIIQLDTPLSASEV
B6: Leucine rich adaptor protein 1 (Homo sapiens), Q96LR2 (parent)
chain: MEGTVESQTPDLRDVEGKVGRKTPEGLLRGLRGECELGTSGALLLPGASSTGHDLGDKIMALKMELAYLRAIDVKILQQLVTLNEGIEAVRWLLEERGTLTSHCSSLTSSQYSLTGGSPGRSRRGSWDSLPDTSTTDRLDSVSIGSFLDTVAPSELDEQGPPGAPRSEMDWAKVIAGGERARTEVDVAATRLGSLRAVWKPPGERLQGGPPESPEDESAKLGFEAHWFWEQCQDDVTFL
partner: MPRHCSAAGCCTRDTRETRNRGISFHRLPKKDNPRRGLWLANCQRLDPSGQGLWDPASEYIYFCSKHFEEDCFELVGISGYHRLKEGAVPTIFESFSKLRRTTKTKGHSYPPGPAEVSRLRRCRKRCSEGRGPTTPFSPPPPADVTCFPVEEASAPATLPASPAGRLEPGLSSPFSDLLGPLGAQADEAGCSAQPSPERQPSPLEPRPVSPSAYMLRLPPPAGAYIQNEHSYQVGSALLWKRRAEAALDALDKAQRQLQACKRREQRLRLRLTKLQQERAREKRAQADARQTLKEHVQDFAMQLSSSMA
B7: PiggyBac transposable element-derived protein 1 (Homo sapiens), Q96JS3 (parent)
chain: MYEALPGPAPENEDGLVKVKEEDPTWEQVCNSQEGSSHTQEICRLRFRHFCYQEAHGPQEALAQLRELCHQWLRPEMHTKEQIMELLVLEQFLTILPKELQPCVKTYPLESGEEAVTVLENLETGSGDTGQQASVYIQGQDMHPMVAEYQGVSLECQSLQLLPGITTLKCEPPQRPQGNPQEVSGPVPHGSAHLQEKNPRDKAVVPVFNPVRSQTLVKTEEETAQAVAAEKWSHLSLTRRNLCGNSAQETVMSLSPMTEEIVTKDRLFKAKQETSEEMEQSGEASGKPNRECAPQIPCSTPIATERTVAHLNTLKDRHPGDLWARMHISSLEYAAGDITRKGRKKDKARVSELLQGLSFSGDSDVEKDNEPEIQPAQKKLKVSCFPEKSWTKRDIKPNFPSWSALDSGLLNLKSEKLNPVELFELFFDDETFNLIVNETNNYASQKNVSLEVTVQEMRCVFGVLLLSGFMRHPRREMYWEVSDTDQNLVRDAIRRDRFELIFSNLHFADNGHLDQKDKFTKLRPLIKQMNKNFLLYAPLEEYYCFDKSMCECFDSDQFLNGKPIRIGYKIWCGTTTQGYLVWFEPYQEESTMKVDEDPDLGLGGNLVMNFADVLLERGQYPYHLCFDSFFTSVKLLSALKKKGVRATGTIRENRTEKCPLMNVEHMKKMKRGYFDFRIEENNEIILCRWYGDGIISLCSNAVGIEPVNEVSCCDADNEEIPQISQPSIVKVYDECKEGVAKMDQIISKYRVRIRSKKWYSILVSYMIDVAMNNAWQLHRACNPGASLDPLDFRRFVAHFYLEHNAHLSD

Variants of: B1
Settings: with tfp11_human TFIP11, Q9UBB9

Row | effect of a mutation on the interaction | Variant
1 | with no effect | G17S

Variants of: B1
Settings: with tpm3_human TPM3, P06753
Chain of tpm3_human TPM3, P06753 (P06753 whole entry): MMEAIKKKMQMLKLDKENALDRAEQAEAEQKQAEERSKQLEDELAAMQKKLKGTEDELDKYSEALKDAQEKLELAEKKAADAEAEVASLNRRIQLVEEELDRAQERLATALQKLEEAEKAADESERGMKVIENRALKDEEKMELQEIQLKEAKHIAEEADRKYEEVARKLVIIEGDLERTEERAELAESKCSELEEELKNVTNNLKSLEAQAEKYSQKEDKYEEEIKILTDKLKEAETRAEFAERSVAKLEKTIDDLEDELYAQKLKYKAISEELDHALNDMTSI

Row | effect of a mutation on the interaction | Variant
2 | with no effect | G17S

Variants of: B2
Settings: with sh24a_human SH2D4A

Row | effect of a mutation on the interaction | Variant
3 | with no effect | S688L
4 | with no effect | R8Q

Variants of: B3
Settings: with atrap_human AGTRAP

Row | effect of a mutation on the interaction | Variant
5 | with no effect | A76V
6 | with no effect | R143H

Variants of: B4
Settings: with pex19_human PEX19, P40855

Row | effect of a mutation on the interaction | Variant
7 | with no effect | D347Y
8 | with no effect | Q82R

Variants of: B5
Settings: with pkhg6_human PLEKHG6, Q3KR16

Row | effect of a mutation on the interaction | Variant
9 | with no effect | L59F

Variants of: B6
Settings: with thap7_human THAP7, Q9BT49

Row | effect of a mutation on the interaction | Variant
10 | with no effect | M60L
11 | disrupting interaction strength | Q207R

Variants of: B7
Settings: with znf24_human ZNF24, P17028
Chain of znf24_human ZNF24, P17028 (P17028 whole entry): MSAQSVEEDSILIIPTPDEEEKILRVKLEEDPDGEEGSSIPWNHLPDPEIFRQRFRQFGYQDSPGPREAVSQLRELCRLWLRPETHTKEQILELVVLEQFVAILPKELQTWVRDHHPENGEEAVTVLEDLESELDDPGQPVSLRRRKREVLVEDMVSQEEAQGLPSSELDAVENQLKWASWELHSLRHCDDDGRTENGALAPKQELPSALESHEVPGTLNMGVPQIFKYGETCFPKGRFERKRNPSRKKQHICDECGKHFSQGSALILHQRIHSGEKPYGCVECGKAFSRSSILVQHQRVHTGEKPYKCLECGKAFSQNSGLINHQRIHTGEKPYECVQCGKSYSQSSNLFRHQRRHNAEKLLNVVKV

Row | effect of a mutation on the interaction | Variant
12 | with no effect | T25A
